What was measured:
[1] = tested on: H358 cells; experiment: Induction of EMT in H358 cells by growth factors and cytokines (immunoblot of EMT biomarkers); type: cell-based, human; conditions: seven day treatment of H358
Experimental: The human line H358 was cultured in the appropriate ATCC recommended supplemented media. Growth factor and cytokine induced EMT was monitored over a 7-14 day period. […]
Cell lines were treated as indicated in the text and figure legends. […] Protein concentration was determined by micro-BCA assay (Pierce, #23227). […]

[2] = tested on: H358 cells; experiment: Immunofluorescence and confocal imaging of E-cadherin and vimentin in ligand-treated H358 cells; type: cell-based, human; conditions: cells treated for 7 days
Experimental: Cells were plated on coverslips on experimental day 0, stimulated with ligand on day 1 and refreshed with medium and ligand on day 3-4. On day 7, cells were fixed at room temperature for 10 minutes in 4% paraformaldehyde (EMS #15701)/PBS (Gibco #14190). Cells were blocked in 3% BSA/PBS and incubated with primary antibody (E-cadherin, Santa Cruz #sc21791 and Vimentin, Chemicon #AB5733) diluted in blocking buffer for two hours at room temperature. Cells were washed and incubated in secondary antibody (Invitrogen #A11029 and Chemicon #AP194R) followed by nuclear counterstain TO-PRO3 (Invitrogen #T3605). Coverslips were mounted on slides with Pro-Long Gold anti-fade reagent (Invitrogen P36934). Images were captured on a Leica DMRXE microcope with SP2 scanner using Leica Confocal Software.

B1: OSM: oncostatin M (R&D Systems #295-OM) (protein, UniProt P13725 26-221, looked up)
Oncostatin-M: AAIGSCSKEYRVLLGQLQKQTDLMQDTSRLLDPYIRIQGLDVPKLREHCRERPGAFPSEETLRGLGRRGFLQTLNATLGCVLHRLADLEQRLPKAQDLERSGLNIEDLEKLQMARPNILGLRNNIYCMAQLLDNSDTAEPTKAGRGASQPPTPTPASDAFQRKLEGCRFLHGYHRFMHSVGRVFSKWGESPNRSRR
- E-cadherin repression or vimentin induction as single agents [1]: neither HGF or OSM as single agents produced significant
- extent of EMT at the single cell level (E-cadherin and vimentin expression and localization) [2]: partial EMT
